Results reported in the DeepSol protein solubility set.

Assay: soluble on expression in E. coli; label from the status in PepcDB or PDB records

Sequence | soluble on expression in E. coli
MGKRMTFDTAKSRFQEKFPHLELLEFSGIYKPSSVRCPTHGVVQLLYYDTAIKSKYGCPECGKLKMKENTPPQNQKPVSILDTATGETLTFPSVQAAAKALNTPYGSIRTKLDGRSNPDNLVCNRYKVLL | soluble
MGKRVLIVDDAAFMRMMLKDIITKAGYEVAGEATNGREAVEKYKELKPDIVTMDITMPEMNGIDAIKEIMKIDPNAKIIVCSAMGQQAMVIEAIKAGAKDFIVKPFQPSRVVEALNKVSK | soluble
MGLEDDFLLEDADDEKTVEFIKNYLPQELKEKFEDDELYYFLDLIDEYYSESGILDAQPDNDGYVNIDLEEVVAYIVKEAKKDEMGEYDPEEILFVVQGEMEYGNSLGQVD | not soluble
MGLLDMIGPVMVGPSSSHTAGACRLALLARHLLGEKPKRVEFGLHGSFAKTGKGHGTHLALAAGVLGLTPDDERLKESLSLAEREGVEVVFKEVELGDVHPNTVRMVLEGEKERLAVTGSSLGGGLVRVFDVDGFEVRITGSAPTLVIKNVDTPGVVARVARILADDEVNIAYLTVSRKKRGGEAMMSIEVDRPLSEVPLRYLEHLSYILWVRQIPPVMG | soluble
MGLSPGQTSVSFLWPLLEVRDHNTGRGLVPATVLTPGSPETLLELRQAFLGSRQARHGHDAAPSSGQQGCSVDRTAGRPVLGWRLRNSLTGQEGRQHLHLSGIRTSRKAKEYKPVFFGATEISVLMAVAESLREPPPPQWGWFLSSLFLKIF | not soluble
MGNKICQFKLVLLGESAVGKSSLVLRFVKGQFHEFQESTIGAAFLTQTVCLDDTTVKFEIWDTAGQERYHSLAPMYYRGAQAAIVVYDITNEESFARAKNWVKELQRQASPNIVIALSGNKADLANKRAVDFQEAQSYADDNSLLFMETSAKTSMNVNEIFMAIAKKLPKN | soluble
MGNTSSERAALERHGGHKTPRRDSSGGTKDGDRPKILMDSPEDADLFHSEEIKAPEKEEFLAWQHDLEVNDKAPAQARPTVFRWTGGGKEVYLSGSFNNWSKLPLTRSHNNFVAILDLPEGEHQYKFFVDGQWTHDPSEPIVTSQLGTVNNIIQVKKTDFEVFDALMVDSQKCSDVSELSSSPPGPYHQEPYVCKPEERFRAPPILPPHLLQVILNKDTGISCDPALLPEPNHVMLNHLYALSIKDGVMVLSATHRYKKKYVTTLLYKPI | soluble
MGPAHKARDDGEGGWSMNSHPPLSVQTLNTLDRKAFTTALHFAFELSPWVVERAWDARPFASVETMHAAMMAVLDAASTADKLALIRAHPELAGKAAIAKQLTAESNAEQASAGLDKLTPDEFARFHALNAAYNTRFGFPFIICVRLNDKASILEAMAARLSNDEASEIAQAITQIGLISKLRLLDAVTHLEHHHHHH | not soluble
MGPHSMRYFETAVSRPGLEEPRYISVGYVDNKEFVRFDSDAENPRYEPRAPWMEQEGPEYWERETQKAKGQEQWFRVSLRNLLGYYNQSAGGSHTLQQMSGCDLGSDWRLLRGYLQFAYEGRDYIALNEDLKTWTAADMAAQITRRKWEQSGAAEHYKAYLEGECVEWLHRYLKNGNATLLRTDSPKAHVTHHPRSKGEVTLRCWALGFYPADITLTWQLNGEELTQDMELVETRPAGDGTFQKWASVVVPLGKEQNYTCRVYHEGLPEPLTLRWEPPPST | soluble
MGQERLDNANPTLFDSKPRHRPVTGTERDESVEDPIDSWEIFDLIRDINDPEHPYTLEQLNVVQEELIKVFIDEEETFVKVNFTPTIPHCSMATLIGLAIRVKLLRSLHPKVKVSVSITPGSHSTEESINRQLADKERVAAAMENQGLMHAVNECLRVPE | not soluble
